According to US20260109764A1 (CAEDO ONCOLOGY, published 2026):
Residue numbers refer to the chain shown, from its start. Several values for one entry are separate records, joined by “and”; a condition that tells them apart may be missing. Identical values can stand only once. Each block holds one binder with its values, some of them ahead of it.

Tests used:
[1] = biological target: T1, human CD47, cell-surface (on Jurkat cells, human red blood cells) (human, UniProt Q08722 19-323); test: flow cytometry on stimulated normal human B cells, FITC MFI against log µg/ml
T1 construct: also called Integrin Associated protein (IAP); MER6
T1 sequence (Q08722 19-323 limits assumed): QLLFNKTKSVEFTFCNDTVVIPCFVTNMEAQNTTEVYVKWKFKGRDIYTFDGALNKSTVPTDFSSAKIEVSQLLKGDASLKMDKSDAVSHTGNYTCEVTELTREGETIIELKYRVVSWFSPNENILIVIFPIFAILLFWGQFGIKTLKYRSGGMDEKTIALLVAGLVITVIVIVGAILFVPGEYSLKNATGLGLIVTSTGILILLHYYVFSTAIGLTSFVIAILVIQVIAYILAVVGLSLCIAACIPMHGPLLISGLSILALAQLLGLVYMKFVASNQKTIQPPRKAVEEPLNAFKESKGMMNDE
Method: FIG. 6: Hemagglutination and binding of red blood cells (RBCs) by huCO-scFv. (A) 2% RBCs (v/v in PBS) were incubated with increasing concentrations of the indicated antibodies or fragments for 30 minutes. A small punctate circle indicates no hemagglutination, while a diffuse hazy pattern indicates hemagglutination. (B) 2% RBCs (v/v in PBS) were incubated with increasing concentrations of FITC-conjugated CO201-scFv and analyzed by flow cytometry. (C and D) B cells were isolated from buffycoats of healthy human donors using CD19 Dynabeads and stimulated with 1 μg/ml CpG and RP105 for 24 hours. (C) B cells were incubated with the indicated antibodies or fragments at increasing concentrations and analyzed for binding by flow cytometry. (D) B cells were incubated with the indicated antibodies or fragments at concentrations in μg/ml for 3 hours, followed by staining with Annexin V and 7-AAD. % PCD=Annexin V-positive cells.

[2] = biological target: T1, human CD47, cell-surface (on Jurkat …); test: flow cytometry on Jurkat cells, FITC MFI against log µg/ml
[3] = biological target: T2, recombinant biotinylated CD47 (recCD47, SinoBiological 12283-H27H-B) (UniProt Q08722 19-139, biotinylated (AVI-tag)); test: SPR Biacore S200, biotinylated recCD47 on SA chip, fusion protein as analyte, single-cycle, 1:1 model, 25 C
T2 construct: Bought protein; also called recombinant CD47
T2 sequence (Q08722 19-139 limits assumed): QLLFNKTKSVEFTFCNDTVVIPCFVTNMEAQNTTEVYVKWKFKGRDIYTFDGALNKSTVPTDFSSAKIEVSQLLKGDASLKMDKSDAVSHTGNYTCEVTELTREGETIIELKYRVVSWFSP
Method: The binding affinity of CO201-scFv-Fc-mono as described in Example 4 to CD47 was determined via surface plasmon resonance (SPR) on a Biacore S200 system. Recombinant biotinylated CD47 was immobilized on an SA streptavidin chip to a level of 100 RU (in 10 mM NaAc pH 5.0). CO201-scFv-Fc-mono reacted with recombinant CD47 at gradient concentrations
(§1) A 1:1 binding model was used to fit the data. All curves are well fitted to the 1:1 model.

[4] = biological target: T1, human CD47, cell-surface (on Jurkat …); test: flow cytometry on Jurkat cells, detection with anti-His6-FITC, four parameter curve fit
Method: PBS-washed cancer cell lines or RBCs were pelleted and washed with washing buffer (3% (w/v) BSA, 1% (w/v) sodium azide in PBS) and incubated with Human BD Fc Block for 10 minutes before being plated into a round-bottom 96 well plate (2.5×10⁵ cells per well). The cells were then incubated with various concentrations of CO-1 scFv, or appropriate isotype controls as indicated for 1 h on ice with slight agitation. All samples were prepared in duplicates. Cells were washed twice, resuspended in cold His staining solution (1 μg/ml His₆-FITC in washing buffer), and incubated for 30 minutes on ice with slight agitation. Cells were analyzed by flow cytometry after two washes. Excitation wavelength FITC: 488 nm, detection: 530/30 nm.
The cells were incubated with increasing concentrations of CO-1 scFv, or isotype control, followed by incubation with an anti-His, FITC secondary antibody. […] The EC₅₀ for CO-1 scFv was analyzed by four parameter […] curve fitting in GraphPad and determined to be 0.05 ng/ml.

[5] = biological target: T2, recombinant biotinylated CD47 (recCD47, …); test: SPR Biacore S200, biotinylated recCD47 on SA chip, scFv as analyte, single-cycle, 1:1 model, 25 C
Method: The affinity of CO-1 scFv to CD47 was determined via surface plasmon resonance (SPR) on a Biacore S200 system. Recombinant biotinylated CD47 was immobilized on an SA streptavidin chip to a level of 100 RU (in 10 mM NaAc pH 5.0). CO-1 scFv reacted with recombinant CD47 at gradient concentrations
as §1

[6] = biological target: T1, human CD47, cell-surface (on Jurkat …); test: flow cytometry, FITC-conjugated scFv on Jurkat cells, FITC MFI against log µg/ml
Method: FIG. 5: Binding of huCO-scFv to Jurkat cells. Jurkat cells incubated with increasing concentrations of FITC-conjugated huCO-scFv. FITC-intensity was analyzed by flow cytometry.
DPBS-washed cancer cell lines or RBCs were pelleted and washed with washing buffer (3% (w/v) BSA, 1% (w/v) sodium azide in DPBS) and incubated with Human BD Fc Block for 10 minutes before being plated into a round-bottom 96 well plate (2.5×10⁵ cells per well). The cells were then incubated with various concentrations of FITC-conjugated huCO-scFv, or human IgG4 isotype control as indicated for 1h on ice with slight agitation. All samples were prepared in duplicates. The cells were analyzed by flow cytometry after three washes in washing buffer. Excitation wavelength FITC: 488 nm, detection: 530/30 nm.

[7] = biological target: T1, human CD47, cell-surface (on Jurkat …); test: cell-based or functional assay
[8] = biological target: T2, recombinant biotinylated CD47 (recCD47, …); test: SPR Biacore S200, biotinylated recCD47 on SA chip, scFv as analyte, single-cycle, 1:1 model, 25 C; remark: listed apart in the source
Method: The binding affinity of the huCO-mAbs to CD47 was determined via surface plasmon resonance (SPR) on a Biacore S200 system. Recombinant biotinylated CD47 was immobilized on an SA streptavidin chip to a level of 100 RU (in 10 mM NaAc pH5.0). […]
A 1:1 binding model was used to fit the data. All curves are well fitted to the 1:1 model. […] The affinity constant KD is calculated as kd/kₐ.

EC50 (read off the curve) [1]: ~0.2 µg/mL
EC50 (read off the curve) [2]: ~0.3 µg/mL
B1: CO-1.4 (antibody, V domains shown)
VH: QIQLVQSGPELKKPGETVKISCKASGYTFTNFGMHWVKQAPGKGLKWMGWINTYTGEPTYTDDFKGRFAFSLETSASTAYLQINSLKNEDTATFFCTRGDYRYGDSWGQGTTLTVSS
VL: DVVMTQTPLSLPVSLGDQASISCRSSQSLVHSNGKTYLHWYLQKPGQSPKLLIYRVSNRFSGVPDRFSGSGSGTDFTLKISRIEAEDLGVYFCSQSTHVPFTFGSGTKLEIK
notes: Divalent comparator antibody against CD47; also called full length IgG4 format of the CO-1 antibody; chimeric IgG4 comparator antibody

Kd [3]: 0.097 nM
koff [3]: 0.0027 s⁻¹
kon [3]: 2.8e+07 M⁻¹ s⁻¹
B2: CO201-scFv-Fc-mono (Fc fusion)
chain 1: QVQLVQSGSELKKPGASVKVSCKASGYTFTNFGMHWVRQAPGQGLEWMGWINTYTGEPTYTDDFKGRFVFSLDTSVSTAYLQISSLKAEDTAVYYCARGDYRYGDSWGQGTTVTVSSGGGGSGGGGSGGGGSDIVMTQTPLSLSVTPGQPASISCRSSQSLVHSNGKTYLHWYLQKPGQPPQLLIYRVSNRFSGVPDRFSGSGSGTDFTLKISRVEAEDVGVYYCSQSTHVPFTFGQGTKLEIKSKYGPPCPSCPAPEFLGGPSVFLFPPKPKDTLMISRTPEVTCVVVDVSQEDPEVQFNWYVDGVEVHNAKTKPREEQFNSTYRVVSVLTVLHQDWLNGKEYKCKVSNKGLPSSIEKTISKAKGQPREPQVYTLPPSQEEMTKNQVSLWCLVKGFYPSDIAVEWESNGQPENNYKTTPPVLDSDGSFFLYSRLTVDKSRWQEGNVFSCSVMHEALHNHYTQKSLSLSLGK
chain 2: SKYGPPCPSCPAPEFLGGPSVFLFPPKPKDTLMISRTPEVTCVVVDVSQEDPEVQFNWYVDGVEVHNAKTKPREEQFNSTYRVVSVLTVLHQDWLNGKEYKCKVSNKGLPSSIEKTISKAKGQPREPQVYTLPPSQEEMTKNQVSLSCAVKGFYPSDIAVEWESNGQPENNYKTTPPVLDSDGSFFLVSRLTVDKSRWQEGNVFSCSVMHEALHNHYTQKSLSLSLGK
notes: Knob-hole heterodimer with a single scFv, 77.3 kDa; FITC-conjugated in the flow cytometry assay on RBCs; also called huCO201-scFv-Fc-mono; huCO-scFv-Fc-mono

EC50 [4]: 0.05 ng/mL
Kd [5]: 0.179 nM and 0.18 nM
koff [5]: 0.0056 s⁻¹
kon [5]: 3.1e+07 M⁻¹ s⁻¹
B3: CO-1 scFv (scFv)
scFv: QIQLVQSGPELKKPGETVKISCKASGYTFTNFGMHWVKQAPGKGLKWMGWINTYTGEPTYTDDFKGRFAFSLETSASTAYLQINSLKNEDTATFFCTRGDYRYGDSWGQGTTLTVSSGGGGSGGGGSGGGGSDVVMTQTPLSLPVSLGDQASISCRSSQSLVHSNGKTYLHWYLQKPGQSPKLLIYRVSNRFSGVPDRFSGSGSGTDFTLKISRIEAEDLGVYFCSQSTHVPFTFGSGTKLEIK
notes: Murine VH and VL of mCO-1 in single chain format; Detected on cells with anti-His6-FITC, so it carries a His tag; also called CO-1 scFv fragment; scFv fragment of mCO-1

EC50 (read off the curve) [6]: ~2 µg/mL
Kd [8]: 0.061 nM
koff [8]: 0.00026 s⁻¹
kon [8]: 4.3e+06 M⁻¹ s⁻¹
B4: CO201-scFv (scFv)
scFv: QVQLVQSGSELKKPGASVKVSCKASGYTFTNFGMHWVRQAPGQGLEWMGWINTYTGEPTYTDDFKGRFVFSLDTSVSTAYLQISSLKAEDTAVYYCARGDYRYGDSWGQGTTVTVSSGGGGSGGGGSGGGGSDIVMTQTPLSLSVTPGQPASISCRSSQSLVHSNGKTYLHWYLQKPGQPPQLLIYRVSNRFSGVPDRFSGSGSGTDFTLKISRVEAEDVGVYYCSQSTHVPFTFGQGTKLEIK
notes: FITC-conjugated in the flow cytometry assays, unconjugated in SPR; also called huCO-scFv (collective); humanized scFv version of CO201
programmed cell death (PCD) of Jurkat cells, Annexin V-positive cells after 3 hours [7]: ~60%

EC50 (read off the curve) [6]: ~1 µg/mL
Kd [8]: 0.048 nM
koff [8]: 0.00021 s⁻¹
kon [8]: 4.4e+06 M⁻¹ s⁻¹
B5: CO213-scFv (scFv)
scFv: B4 scFv with E46K
modifications: FITC-conjugated in the flow cytometry assays, sites not stated; unconjugated in SPR.
notes: FITC-conjugated in the flow cytometry assays, unconjugated in SPR; also called huCO-scFv (collective)
programmed cell death (PCD) of Jurkat cells, Annexin V-positive cells after 3 hours [7]: ~60%

EC50 (read off the curve) [6]: ~2 µg/mL
EC50 (read off the curve) [1]: ~4 µg/mL
Kd [8]: 0.033 nM
koff [8]: 0.00017 s⁻¹
kon [8]: 5.1e+06 M⁻¹ s⁻¹
B6: CO209-scFv (scFv)
scFv: B4 scFv with P180S, Q182K
modifications: FITC-conjugated in the flow cytometry assays, sites not stated; unconjugated in SPR.
notes: as for B5
programmed cell death (PCD) of Jurkat cells, Annexin V-positive cells after 3 hours [7]: ~60%
